Source: patent publication EP2785382B1 (IBC Pharmaceuticals, Inc., dated 2019)
One block for each molecule: values may come before it.

Tests used:
IGF-1R on cells (human) [1] = target: IGF-1R on cells (human) (UniProt P08069); experiment: cell-based or functional assay
IGF-1R on cells (human) [2] = target: IGF-1R on cells (human) (UniProt P08069); experiment: 125I-IGF-1 binding to MCF-7L cells with antibody at 100 ng/mL
IGF-1R on cells (human) [3] = target: IGF-1R on cells (human) (UniProt P08069); experiment: 125I-IGF-1 binding to MCF-7L cells with antibody at 1000 ng/mL
IGF-1R on cells (human) [4] = target: IGF-1R on cells (human) (UniProt P08069); experiment: flow cytometry (FACScan), MCF-7 cells
[5] = target: T1, recombinant human IGF-1R (R&D Systems, Catalog # 391-GR) (human, UniProt P08069 31-935); experiment: rhIGF-1R on polystyrene beads (not shown)
T1 construct: extracellular domain; immobilized on ELISA plates or polystyrene beads; also called rhIGF-1R; IGF-1R-coated beads
T1 sequence (P08069 31-935): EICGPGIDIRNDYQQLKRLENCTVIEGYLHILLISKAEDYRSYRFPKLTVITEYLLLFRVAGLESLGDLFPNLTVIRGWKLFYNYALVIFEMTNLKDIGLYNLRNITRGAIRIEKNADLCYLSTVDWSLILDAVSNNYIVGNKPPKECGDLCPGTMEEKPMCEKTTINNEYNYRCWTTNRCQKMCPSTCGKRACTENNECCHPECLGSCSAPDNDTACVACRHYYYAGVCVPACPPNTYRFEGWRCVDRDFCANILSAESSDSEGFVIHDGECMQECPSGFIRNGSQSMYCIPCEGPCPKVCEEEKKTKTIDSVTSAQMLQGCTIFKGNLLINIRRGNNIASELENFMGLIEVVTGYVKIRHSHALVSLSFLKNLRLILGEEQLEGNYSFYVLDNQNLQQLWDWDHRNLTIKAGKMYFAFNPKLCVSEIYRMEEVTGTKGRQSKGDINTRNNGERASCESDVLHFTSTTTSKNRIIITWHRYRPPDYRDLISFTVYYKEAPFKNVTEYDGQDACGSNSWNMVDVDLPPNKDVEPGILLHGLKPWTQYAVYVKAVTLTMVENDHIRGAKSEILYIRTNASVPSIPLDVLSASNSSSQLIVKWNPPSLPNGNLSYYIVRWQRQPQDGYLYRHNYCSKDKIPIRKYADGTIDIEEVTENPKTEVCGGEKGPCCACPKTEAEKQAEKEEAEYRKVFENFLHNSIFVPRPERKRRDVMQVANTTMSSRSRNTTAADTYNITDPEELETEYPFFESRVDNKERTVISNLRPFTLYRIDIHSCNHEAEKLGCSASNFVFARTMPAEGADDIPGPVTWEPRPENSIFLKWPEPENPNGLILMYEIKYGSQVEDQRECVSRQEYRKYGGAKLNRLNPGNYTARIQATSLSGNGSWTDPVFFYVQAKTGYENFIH

IGF-1R on cells (human) [6] = target: IGF-1R on cells (human) (UniProt P08069); experiment: flow cytometry (FACScan), DU 145 cells
IGF-1R on cells (human) [7] = target: IGF-1R on cells (human) (UniProt P08069); experiment: flow cytometry (FACScan), ME-180 cells
[8] = target: recombinant human IGF-1R (R&D Systems, Catalog # 391-GR) (human) (UniProt P08069); experiment: ELISA on immobilized rhIGF-1R (not shown); cR1 from clones 709.2D2 and 710.2G2, same affinity
Chain of recombinant human IGF-1R (R&D Systems, Catalog # 391-GR) (human) (P08069 31-935): as above

Chain of IGF-1R on cells (human) (P08069 31-1367): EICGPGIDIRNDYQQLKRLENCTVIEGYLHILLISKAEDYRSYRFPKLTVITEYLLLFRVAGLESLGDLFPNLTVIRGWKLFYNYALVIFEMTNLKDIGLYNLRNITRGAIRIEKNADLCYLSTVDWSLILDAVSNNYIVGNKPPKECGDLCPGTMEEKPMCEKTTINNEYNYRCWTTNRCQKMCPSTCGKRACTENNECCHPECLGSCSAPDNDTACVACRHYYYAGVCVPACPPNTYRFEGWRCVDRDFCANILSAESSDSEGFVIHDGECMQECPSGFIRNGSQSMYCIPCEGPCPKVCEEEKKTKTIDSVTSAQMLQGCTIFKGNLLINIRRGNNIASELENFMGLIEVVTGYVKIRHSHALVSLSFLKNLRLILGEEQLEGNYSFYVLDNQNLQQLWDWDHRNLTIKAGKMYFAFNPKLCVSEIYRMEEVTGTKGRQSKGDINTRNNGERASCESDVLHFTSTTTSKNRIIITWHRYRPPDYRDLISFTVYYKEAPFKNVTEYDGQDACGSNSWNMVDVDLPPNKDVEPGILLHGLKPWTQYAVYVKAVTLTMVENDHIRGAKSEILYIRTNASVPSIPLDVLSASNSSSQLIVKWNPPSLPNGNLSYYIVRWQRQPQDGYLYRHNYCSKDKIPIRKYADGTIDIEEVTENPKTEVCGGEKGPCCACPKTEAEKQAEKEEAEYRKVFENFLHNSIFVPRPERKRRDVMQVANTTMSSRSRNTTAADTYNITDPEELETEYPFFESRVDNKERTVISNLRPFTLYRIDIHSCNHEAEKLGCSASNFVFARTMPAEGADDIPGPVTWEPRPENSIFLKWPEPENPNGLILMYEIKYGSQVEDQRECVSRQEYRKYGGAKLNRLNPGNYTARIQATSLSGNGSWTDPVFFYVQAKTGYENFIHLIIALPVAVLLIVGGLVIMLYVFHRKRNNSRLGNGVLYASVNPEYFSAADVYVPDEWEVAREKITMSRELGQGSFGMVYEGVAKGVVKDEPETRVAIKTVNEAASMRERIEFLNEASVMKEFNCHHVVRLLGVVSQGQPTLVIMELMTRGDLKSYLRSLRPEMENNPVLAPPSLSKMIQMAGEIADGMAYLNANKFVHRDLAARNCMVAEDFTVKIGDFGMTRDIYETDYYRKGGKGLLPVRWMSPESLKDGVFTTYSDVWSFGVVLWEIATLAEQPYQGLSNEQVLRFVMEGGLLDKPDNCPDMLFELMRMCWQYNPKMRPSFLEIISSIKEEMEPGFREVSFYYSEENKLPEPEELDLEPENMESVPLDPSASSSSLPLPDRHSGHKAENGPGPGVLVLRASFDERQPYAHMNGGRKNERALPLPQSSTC

B2: Hex-hR1 (antibody, V domains shown, not shown: a dimerising Fc or GST; small tags and cut ends)
VH: QVQLQESGGGVVQPGRSLRLSCSASGFTFSDYYMYWVRQAPGKGLEWVAYITNYGGSTYYPDTVKGRFTISRDNAKNTLFLQMDSLRPEDTGVYFCARQSNYDYDGWFAYWGQGTPVTVSS
VL: DIQLTQSPSSLSASVGDRVTITCKASQEVGTAVAWYQQKPGKAPKLLIYWASTRHTGVPSRFSGSGSGTDFTFTISSLQPEDIATYFCQQYSNYPLTFGQGTKVEIK
modifications: DNL complex: one IgG-AD2 and four Fab-DDD2, disulfide-locked through AD2 and DDD2. All six Fabs carry the same hR1 VH/VK [CUT]
maximum growth inhibition, 786-O cells (8 nM), serum-free, IGF-1 100 ng/mL, MTS (IGF-1R on cells (human) [1]): 35%
maximum growth inhibition, ACHN cells (200 nM), serum-free, IGF-1 100 ng/mL, MTS (IGF-1R on cells (human) [1]): 48%
maximum growth inhibition, Caki-2 cells (8 nM), serum-free, IGF-1 100 ng/mL, MTS (IGF-1R on cells (human) [1]): 43%

B3: 1R-E1 (bispecific antibody, part only; not given: hRS7 Fab-DDD2 module, not shown: a dimerising Fc or GST)
heavy (part 1 of 2): B2 VH
heavy (part 2 of 2): GSGGGGSGGCGQIEYLAKQIVDNAIQQAGC
light: DIQLTQSPSSLSASVGDRVTITCKASQEVGTAVAWYQQKPGKAPKLLIYWASTRHTGVPSRFSGSGSGTDFTFTISSLQPEDIATYFCQQYSNYPLTFGQGTKVEIKR
concentration substantially reducing the level of IGF-1R in MCF-7, DU-145 and LnCap (IGF-1R on cells (human) [1]): 0.1 nM

B4: cR1 (antibody, from another filing, V domains shown)
VH: EVKLVESGGGLVQPGGSLKLSCATSGFTFSDYYMYWVRQTPEKRLEWVAYITNYGGSTYYPDTVKGRFTISRDNAKNTLYLQMSRLRSEDTAMYFCARQSNYDYDGWFAYWGQGTTVTVSS
VL: DIVMTQSHKFMSTSVGDRVSITCKASQEVGTAVAWYQQKPGQSPKLLIYWASTRHTGVPDRFTGSGSGTDFTLTISNVQSEDLADYFCQQYSNYPLTFGAGAKLELKR
Kd [8]: 0.1 nM

The next lines start with the values.

maximum growth inhibition, 786-O cells (8 nM), serum-free, IGF-1 100 ng/mL, MTS (IGF-1R on cells (human) [1]): 34%
maximum growth inhibition, ACHN cells (200 nM), serum-free, IGF-1 100 ng/mL, MTS (IGF-1R on cells (human) [1]): 48%
maximum growth inhibition, Caki-2 cells (8 nM), serum-free, IGF-1 100 ng/mL, MTS (IGF-1R on cells (human) [1]): 50%
% binding of 125I-IGF-1 to MCF-7L (IGF-1R on cells (human) [2]): 54%
% binding of 125I-IGF-1 to MCF-7L (IGF-1R on cells (human) [3]): 38%
Molecule: MAB391 (antibody)

% Positive (IGF-1R on cells (human) [4]): 89.2%
MFI (IGF-1R on cells (human) [4]): 9.93
concentration giving complete receptor down-regulation (IGF-1R on cells (human) [1]): 10 nM
maximum growth inhibition, 786-O cells (8 nM), serum-free, IGF-1 100 ng/mL, MTS (IGF-1R on cells (human) [1]): 26%
maximum growth inhibition, ACHN cells (200 nM), serum-free, IGF-1 100 ng/mL, MTS (IGF-1R on cells (human) [1]): 3%
maximum growth inhibition, Caki-2 cells (8 nM), serum-free, IGF-1 100 ng/mL, MTS (IGF-1R on cells (human) [1]): 33%
binding result [5]: binds
% Positive (IGF-1R on cells (human) [6]): 30.4%
MFI (IGF-1R on cells (human) [6]): 5.33
% Positive (IGF-1R on cells (human) [7]): 10.7%
MFI (IGF-1R on cells (human) [7]): 3.65
B1: hR1 (antibody, IgG1, V domains shown)
VH: B2 VH
VL: B3 light
notes: also called humanized anti-IGF-1R; hR1 IgG
